Laboratory results as given in US20150344570A1 (published 2015).

B1: GpH7-A5/GpH7-B3 variant V266_05P/GpL16-k0 (antibody, human IgG1, kappa)
heavy 1: not shown
heavy 2: not shown
light: DIVMTQSPLSLPVTPGEPASISCQASESLVHSNRNTYLHWYLQKPGQSPQLLIYKVSNRFSGVPDRFSGSGSGTDFTLKISRVEAEDVGVYYCSQNTHVPPTFGQGTKVEIERTVAAPSVFIFPPSDEQLKSGTASVVCLLNNFYPREAKVQWKVDNALQSGNSQESVTEQDSKDSTYSLSSTLTLSKADYEKHKVYACEVTHQGLSSPVTKSFNRGEC
notes: Heterodimerized anti-glypican-3 IgG1; mutation in one H chain only; also called He Ab
B2: GpH7-A5/GpH7-B3 variant G237_02A/GpL16-k0 (antibody, human IgG1, kappa)
heavy 1: not shown
heavy 2: not shown
light: B1 light
notes: Heterodimerized antibody, alteration in one H chain only; also called He Ab G237A
B3: GpH7-A5/GpH7-B3 variant G236_09D/GpL16-k0 (antibody, human IgG1, kappa)
heavy 1: not shown
heavy 2: not shown
light: B1 light
notes: Heterodimerized antibody, alteration in one H chain only; also called He Ab G236D
B4: GpH7-A5/GpH7-B3 variant G237_03V/GpL16-k0 (antibody, human IgG1, kappa)
heavy 1: not shown
heavy 2: not shown
light: B1 light
notes: Heterodimerized antibody, alteration in one H chain only; also called He Ab G237V
B5: GpH7-A5/GpH7-B3 variant G237_04F/GpL16-k0 (antibody, human IgG1, kappa)
heavy 1: not shown
heavy 2: not shown
light: B1 light
notes: Heterodimerized antibody, alteration in one H chain only; also called He Ab G237F
B6: GpH7-A5/GpH7-B3 variant G237_06M/GpL16-k0 (antibody, human IgG1, kappa)
heavy 1: not shown
heavy 2: not shown
light: B1 light
notes: Heterodimerized antibody, alteration in one H chain only; also called He Ab G237M
B7: GpH7-A5/GpH7-B3 variant G237_08L/GpL16-k0 (antibody, human IgG1, kappa)
heavy 1: not shown
heavy 2: not shown
light: B1 light
notes: Heterodimerized antibody, alteration in one H chain only; also called He Ab G237L
B8: GpH7-A5/GpH7-B3 variant G237_09D/GpL16-k0 (antibody, human IgG1, kappa)
heavy 1: not shown
heavy 2: not shown
light: B1 light
notes: Heterodimerized antibody, alteration in one H chain only; also called He Ab G237D
B9: GpH7-A5/GpH7-B3 variant G237_10E/GpL16-k0 (antibody, human IgG1, kappa)
heavy 1: not shown
heavy 2: not shown
light: B1 light
notes: Heterodimerized antibody, alteration in one H chain only; also called He Ab G237E
B10: GpH7-A5/GpH7-B3 variant G237_11K/GpL16-k0 (antibody, human IgG1, kappa)
heavy 1: not shown
heavy 2: not shown
light: B1 light
notes: Heterodimerized antibody, alteration in one H chain only; also called He Ab G237K
B11: GpH7-A5/GpH7-B3 variant G237_12R/GpL16-k0 (antibody, human IgG1, kappa)
heavy 1: not shown
heavy 2: not shown
light: B1 light
notes: Heterodimerized antibody, alteration in one H chain only; also called He Ab G237R
B12: GpH7-A5/GpH7-B3 variant G237_13S/GpL16-k0 (antibody, human IgG1, kappa)
heavy 1: not shown
heavy 2: not shown
light: B1 light
notes: Heterodimerized antibody, alteration in one H chain only; also called He Ab G237S
B13: GpH7-A5/GpH7-B3 variant G237_14T/GpL16-k0 (antibody, human IgG1, kappa)
heavy 1: not shown
heavy 2: not shown
light: B1 light
notes: Heterodimerized antibody, alteration in one H chain only; also called He Ab G237T
B14: GpH7-A5/GpH7-B3 variant G237_15Y/GpL16-k0 (antibody, human IgG1, kappa)
heavy 1: not shown
heavy 2: not shown
light: B1 light
notes: Heterodimerized antibody, alteration in one H chain only; also called He Ab G237Y
B15: GpH7-A5/GpH7-B3 variant G237_16H/GpL16-k0 (antibody, human IgG1, kappa)
heavy 1: not shown
heavy 2: not shown
light: B1 light
notes: Heterodimerized antibody, alteration in one H chain only; also called He Ab G237H
B16: GpH7-A5/GpH7-B3 variant G237_18N/GpL16-k0 (antibody, human IgG1, kappa)
heavy 1: not shown
heavy 2: not shown
light: B1 light
notes: Heterodimerized antibody, alteration in one H chain only; also called He Ab G237N
B17: GpH7-A5/GpH7-B3 variant G237_19Q/GpL16-k0 (antibody, human IgG1, kappa)
heavy 1: not shown
heavy 2: not shown
light: B1 light
notes: Heterodimerized antibody, alteration in one H chain only; also called He Ab G237Q

What follows are binders tested against T1, FcγRIIa H (human, UniProt P12318 34-217) (assay: SPR; He/Con for FcγRIIa H divided by He/Con for FcγRIIb).
T1 construct: extracellular domain; also called FcgRIIa H; 2aH; not shown: His tag attached to the C terminus
T1 sequence (looked up): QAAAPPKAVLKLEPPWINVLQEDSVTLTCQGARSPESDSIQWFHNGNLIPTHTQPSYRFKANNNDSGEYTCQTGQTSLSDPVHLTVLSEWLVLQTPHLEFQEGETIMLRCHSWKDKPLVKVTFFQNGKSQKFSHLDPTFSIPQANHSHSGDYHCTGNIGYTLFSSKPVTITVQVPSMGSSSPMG
B1 was tested, and the “He_2aH/2b (IIaH/IIb)” value was 1.91 ratio.

Each binder was assayed against T2, FcγRIIa H (human, UniProt P12318 34-217) (assay: SPR (Biacore); He/Con_2aH divided by He/Con_2b (FcγRIIa H over FcγRIIb)).
T2 construct: extracellular domain; also called FcgRIIa H; FcγRIIa type H
T2 sequence (looked up): T1 sequence (looked up)
For B2, the “He_2aH/2b (IIaH/IIb)” value was 0.27 ratio.
For B3, the “He_2aH/2b (IIaH/IIb)” value was 0.54 ratio.
B4 was tested, and the “He_2aH/2b (IIaH/IIb)” value was 0.64 ratio.
For B5, the “He_2aH/2b (IIaH/IIb)” value was 0.28 ratio.
In the case of B6, the “He_2aH/2b (IIaH/IIb)” value is reported as 0.14 ratio.
In the case of B7, the “He_2aH/2b (IIaH/IIb)” value is reported as 0.09 ratio.
With B8 the “He_2aH/2b (IIaH/IIb)” value was 0.05 ratio.
In the case of B9, the “He_2aH/2b (IIaH/IIb)” value is reported as 0.13 ratio.
For B10, the “He_2aH/2b (IIaH/IIb)” value was 0.64 ratio.
In the case of B11, the “He_2aH/2b (IIaH/IIb)” value is reported as 0.76 ratio.
B12 was tested, and the “He_2aH/2b (IIaH/IIb)” value was 0.27 ratio.
For B13, the “He_2aH/2b (IIaH/IIb)” value was 0.58 ratio.
In the case of B14, the “He_2aH/2b (IIaH/IIb)” value is reported as 0.17 ratio.
In the case of B15, the “He_2aH/2b (IIaH/IIb)” value is reported as 0.3 ratio.
B16 was tested, and the “He_2aH/2b (IIaH/IIb)” value was 0.08 ratio.
With B17 the “He_2aH/2b (IIaH/IIb)” value was 0.25 ratio.

What follows are binders tested against T2, FcγRIIa H (assay: SPR (Biacore), antibody captured, FcγR analyte; binding relative to GpH7-A5/GpH7-B3/GpL16-k0 = 100).
In the case of B2, the He/Con_2aH is reported as 34 % of control.
With B3 the He/Con_2aH was 89.8 % of control.
B4 was tested, and the He/Con_2aH was 39.4 % of control.
B5 was tested, and the He/Con_2aH was 41.4 % of control.
For B6, the He/Con_2aH was 17.8 % of control.
With B7 the He/Con_2aH was 13.9 % of control.
With B8 the He/Con_2aH was 11.1 % of control.
B9 was tested, and the He/Con_2aH was 15.1 % of control.
In the case of B10, the He/Con_2aH is reported as 5.8 % of control.
For B11, the He/Con_2aH was 7.5 % of control.
For B12, the He/Con_2aH was 29.8 % of control.
For B13, the He/Con_2aH was 31.8 % of control.
With B14 the He/Con_2aH was 25.4 % of control.
In the case of B15, the He/Con_2aH is reported as 16.4 % of control.
B16 was tested, and the He/Con_2aH was 15.2 % of control.
For B17, the He/Con_2aH was 26.5 % of control.

These binders were tested against T3, FcγRIIb (human, UniProt P31994 43-217) in the same assay as above.
T3 construct: extracellular domain; also called FcgRIIb; 2b
T3 sequence (looked up): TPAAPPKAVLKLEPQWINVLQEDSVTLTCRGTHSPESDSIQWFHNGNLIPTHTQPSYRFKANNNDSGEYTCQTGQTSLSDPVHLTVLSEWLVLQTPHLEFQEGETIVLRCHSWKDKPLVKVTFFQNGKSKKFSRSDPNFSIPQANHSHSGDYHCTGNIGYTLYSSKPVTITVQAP
In the case of B2, the He/Con_2b is reported as 124 % of control.
For B3, the He/Con_2b was 167 % of control.
B4 was tested, and the He/Con_2b was 61.4 % of control.
B5 was tested, and the He/Con_2b was 149 % of control.
With B6 the He/Con_2b was 130 % of control.
In the case of B7, the He/Con_2b is reported as 148 % of control.
With B8 the He/Con_2b was 223 % of control.
B9 was tested, and the He/Con_2b was 114 % of control.
B10 was tested, and the He/Con_2b was 9 % of control.
With B12 the He/Con_2b was 111 % of control.
With B13 the He/Con_2b was 54.8 % of control.
In the case of B14, the He/Con_2b is reported as 152 % of control.
With B15 the He/Con_2b was 55.2 % of control.
B16 was tested, and the He/Con_2b was 180 % of control.
With B17 the He/Con_2b was 108 % of control.

What follows are binders tested against T1, FcγRIIa H (assay: SPR (Biacore), antibody captured on antigen peptide chip, FcγR as analyte; relative binding activity).
Method: (§1) The heterodimerized antibodies He Abs in which one of the H chains was introduced with an alteration were assayed for their binding activities to each activating FcγR and inhibitory FcγR according to the method described in Example 4. […] The activating FcγRs in FIGS. 26, 27, 28, and 29 are FcγRIa, FcγRIIa (R), FcγRIIa (H), and FcγRIIIa, respectively.
(§2) Analysis of interaction between objective antibody and the FcγR was carried out using Biacore T100 (GE Healthcare). HBS-EP+ (GE Healthcare) was used as the running buffer, and the measurement temperature was set to 25° C. Chips produced by immobilizing the antigen peptide by the amine coupling method to a Series S Sencor Chip CM5 (GE Healthcare), or alternatively, chips produced by allowing preliminarily biotinylated antigen peptides to interact with and immobilize onto a Series S Sensor Chip SA (certified) (GE Healthcare) were used. Antibodies of interest were captured onto an antigen peptide-immobilized chip, and allowed to interact to each FcγR diluted with running buffer. To regenerate and repeatedly use the chip, the antibodies captured on the chip were washed off by reacting 10 mM glycine-HCl, pH 1.5.
With B1 the He/Con_2aH was 0.7 % of GpH7-A5/GpH7-B3/GpL16-k0 (=100).

The binders below were run against T4, FcγRIIb (human, UniProt P31994 43-217) in the same assay as above.
T4 construct: extracellular domain; also called FcgRIIb; 2b; not shown: His tag attached to the C terminus
T4 sequence (looked up): T3 sequence (looked up)
Method: as §1, §2
In the case of B1, the He/Con_2b is reported as 0.4 % of GpH7-A5/GpH7-B3/GpL16-k0 (=100).
